The record followed here is article PMC10397247.

In one test the target is T1, 4H121-bA.
T1 chain: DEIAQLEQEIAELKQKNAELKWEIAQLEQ
Briefly: two-hybrid library CCNG1.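 Further: natural log of median RNA to DNA barcode read ratio; higher means stronger binding.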

In another test the target is T2, 4H182-bA.
T2 chain: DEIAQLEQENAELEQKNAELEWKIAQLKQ
Briefly: two-hybrid library CCNG1.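 Further: natural log of median RNA to DNA barcode read ratio; higher means stronger binding.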

For a further test, the target named is T3, 4H2134-bA.
T3 chain: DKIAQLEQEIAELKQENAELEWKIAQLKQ
Briefly: two-hybrid library CCNG1.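 Further: natural log of median RNA to DNA barcode read ratio; higher means stronger binding.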

The target of the next test is T4, 4H2143-bA.
T4 chain: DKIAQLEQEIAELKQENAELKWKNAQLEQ
The test is described as follows: two-hybrid library CCNG1.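 Further: natural log of median RNA to DNA barcode read ratio; higher means stronger binding.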

Another test deals with T5, 4H2223-bA.
T5 chain: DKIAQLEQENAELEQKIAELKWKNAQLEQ
The test is described as follows: two-hybrid library CCNG1.

The target of a further test is T6, 4H2438-bA.
T6 chain: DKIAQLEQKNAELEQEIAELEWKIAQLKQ
Briefly: two-hybrid library CCNG1.

In another test the target is T7, 4H2444-bA.
T7 chain: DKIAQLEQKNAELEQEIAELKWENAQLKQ
Briefly: two-hybrid library CCNG1.

The target in the next test is T8, 4H2473-bA.
T8 chain: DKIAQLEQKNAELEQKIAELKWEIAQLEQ
The test is described as follows: two-hybrid library CCNG1.

The next test deals with T9, 4H2503-bA.
T9 chain: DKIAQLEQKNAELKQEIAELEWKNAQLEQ
The test is described as follows: two-hybrid library CCNG1.

Another test deals with T10, 4H2588-bA.
T10 chain: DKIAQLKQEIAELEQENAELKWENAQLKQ
Briefly: two-hybrid library CCNG1.

The next test concerns the target T11, 4H2692-bA.
T11 chain: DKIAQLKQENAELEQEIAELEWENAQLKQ
The test is described as follows: two-hybrid library CCNG1.

A further test concerns the target T12, 4H2717-bA.
T12 chain: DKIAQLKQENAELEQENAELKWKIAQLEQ
Briefly: two-hybrid library CCNG1.

The next test addresses T13, 4H2839-bA.
T13 chain: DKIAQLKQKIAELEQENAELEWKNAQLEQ
The test is described as follows: two-hybrid library CCNG1.

Another test deals with T14, 4H2915-bA.
T14 chain: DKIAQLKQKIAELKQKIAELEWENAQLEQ
The test is described as follows: two-hybrid library CCNG1.

For a further test, the target named is T15, 4H3057-bA.
T15 chain: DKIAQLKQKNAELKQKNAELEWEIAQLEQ
The test is described as follows: two-hybrid library CCNG1.

The target in another test is T16, 4H319-bA.
T16 chain: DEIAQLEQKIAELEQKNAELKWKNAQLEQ
Briefly: two-hybrid library CCNG1.

The next test deals with T17, 4H3277-bA.
T17 chain: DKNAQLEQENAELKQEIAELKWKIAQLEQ
The test is described as follows: two-hybrid library CCNG1.

The target in a further test is T18, 4H348-bA.
T18 chain: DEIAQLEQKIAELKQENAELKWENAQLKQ
The test is described as follows: two-hybrid library CCNG1.

The target of the next test is T19, 4H40-bA.
T19 chain: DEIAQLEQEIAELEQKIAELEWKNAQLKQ
The test is described as follows: two-hybrid library CCNG1.

The next test has as its target T20, 4H477-bA.
T20 chain: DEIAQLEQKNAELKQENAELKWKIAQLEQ
Briefly: two-hybrid library CCNG1.

The target in another test is T21, 4H492-bA.
T21 chain: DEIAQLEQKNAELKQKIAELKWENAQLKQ
The test is described as follows: two-hybrid library CCNG1.

Another test deals with T22, 4H741-bA.
T22 chain: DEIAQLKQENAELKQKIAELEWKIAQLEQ
The test is described as follows: two-hybrid library CCNG1.

The next test addresses T23, Core_NIII-es_KEEE.
T23 chain: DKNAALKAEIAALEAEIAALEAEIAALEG
The test is described as follows: two-hybrid library CCmax. Conditions: mean of both orientations.

The target of a further test is T24, O1-bA.
T24 chain: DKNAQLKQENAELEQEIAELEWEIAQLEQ
Briefly: two-hybrid library CCNG1.

A further test addresses T25, O10-bA.
T25 chain: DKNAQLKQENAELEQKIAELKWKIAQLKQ
The test is described as follows: two-hybrid library CCNG1.

Another test concerns the target T26, O11-bA.
T26 chain: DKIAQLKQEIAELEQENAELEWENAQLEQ
The test is described as follows: two-hybrid library CCNG1.

A further test concerns the target T27, O12-bA.
T27 chain: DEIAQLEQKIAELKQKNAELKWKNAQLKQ
Briefly: two-hybrid library CCNG1.

The next test concerns the target T28, O13-bA.
T28 chain: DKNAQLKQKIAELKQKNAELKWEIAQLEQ
The test is described as follows: two-hybrid library CCNG1.

A further test has as its target T29, O14-bA.
T29 chain: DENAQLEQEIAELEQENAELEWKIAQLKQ
The test is described as follows: two-hybrid library CCNG1.

The next test addresses T30, O15-bA.
T30 chain: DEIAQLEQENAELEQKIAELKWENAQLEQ
The test is described as follows: two-hybrid library CCNG1.

The target of the next test is T31, O16-bA.
T31 chain: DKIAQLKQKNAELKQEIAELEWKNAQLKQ
Briefly: two-hybrid library CCNG1.

The target of the next test is T32, O2-bA.
T32 chain: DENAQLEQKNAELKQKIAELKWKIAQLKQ
The test is described as follows: two-hybrid library CCNG1.

The target of another test is T33, O3-bA.
T33 chain: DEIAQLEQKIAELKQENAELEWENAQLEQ
Briefly: two-hybrid library CCNG1.

The target of another test is T34, O4-bA.
T34 chain: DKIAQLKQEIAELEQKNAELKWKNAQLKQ
The test is described as follows: two-hybrid library CCNG1.

A further test concerns the target T35, O5-bA.
T35 chain: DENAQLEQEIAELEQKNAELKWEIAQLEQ
Briefly: two-hybrid library CCNG1.

In a further test the target is T36, O6-bA.
T36 chain: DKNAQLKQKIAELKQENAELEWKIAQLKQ
The test is described as follows: two-hybrid library CCNG1.

The target in a further test is T37, O7-bA.
T37 chain: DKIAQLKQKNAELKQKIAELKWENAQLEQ
The test is described as follows: two-hybrid library CCNG1.

The target of another test is T38, O8-bA.
T38 chain: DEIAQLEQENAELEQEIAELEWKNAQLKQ
The test is described as follows: two-hybrid library CCNG1.

For another test, the target named is T39, O9-bA.
T39 chain: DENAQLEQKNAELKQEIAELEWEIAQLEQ
Briefly: two-hybrid library CCNG1.

Another test addresses T40, Core_NINN-es_KKEK.
T40 chain: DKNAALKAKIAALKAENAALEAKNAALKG
The test is described as follows: two-hybrid library CCmax. The conditions noted are these: mean of both orientations.

The target in another test is T41, P6p.
T41 chain: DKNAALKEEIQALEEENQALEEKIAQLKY
Briefly: two-hybrid library CCmax. The conditions noted are these: mean of both orientations.

The target in the next test is T42, 4H1046-bN.
T42 chain: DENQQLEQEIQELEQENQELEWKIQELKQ
Briefly: two-hybrid library CCNG1. The conditions noted are these: mean of both orientations.

For the next test, the target named is T43, 4H1072-bN.
T43 chain: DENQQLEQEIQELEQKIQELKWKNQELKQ
The test is described as follows: two-hybrid library CCNG1.

The target in another test is T44, 4H2568-bN.
T44 chain: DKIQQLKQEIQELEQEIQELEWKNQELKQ
Briefly: two-hybrid library CCNG1.

Another test addresses T45, 4H2619-bN.
T45 chain: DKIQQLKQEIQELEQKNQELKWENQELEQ
Briefly: two-hybrid library CCNG1.

The target of a further test is T46, 4H2745-bN.
T46 chain: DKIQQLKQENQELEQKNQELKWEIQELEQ
The test is described as follows: two-hybrid library CCNG1.

The target in another test is T47, 4H344-bN.
T47 chain: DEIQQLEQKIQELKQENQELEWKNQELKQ
Briefly: two-hybrid library CCNG1.

A further test concerns the target T48, 4H363-bN.
T48 chain: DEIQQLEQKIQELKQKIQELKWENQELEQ
Briefly: two-hybrid library CCNG1.

Another test concerns the target T49, 4H3907-bN.
T49 chain: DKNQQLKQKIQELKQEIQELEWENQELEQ
Briefly: two-hybrid library CCNG1.

The next test addresses T50, 4H3961-bN.
T50 chain: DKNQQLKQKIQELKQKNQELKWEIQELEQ
Briefly: two-hybrid library CCNG1. Conditions: mean of both orientations.

The next test deals with T51, 4H470-bN.
T51 chain: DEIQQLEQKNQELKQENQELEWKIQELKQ
Briefly: two-hybrid library CCNG1.

DEIAQLEQEIAELKQKNAELKWEIAQLEQ [4H121-bA]: the interaction score with 4H121-bA was -0.103; in the test with 4H182-bA, -1.13; with 4H2134-bA, 1.92; with 4H2143-bA, -0.624; with 4H2223-bA, 0.764; with 4H2438-bA, 1.56. Moreover, the interaction score is -3.87 with 4H2444-bA; -1.11 with 4H2473-bA; -1.32 in the test with 4H2503-bA; -0.283 with 4H2588-bA; -0.366 in the test with 4H2692-bA; -0.497 with 4H2717-bA. The interaction score is 0.693 with 4H2839-bA; -0.0952 in the test with 4H2915-bA; 0.0584 with 4H3057-bA; -1.51 with 4H319-bA; -1.51 with 4H3277-bA; -1.19 in the test with 4H348-bA. Also, the interaction score with 4H40-bA was -0.579; in the test with 4H477-bA, -1.12; with 4H492-bA, -1.44; with 4H741-bA it was -1.09.

DENAALEAKIAALKAKIAALKAKIAALKG [Core_NIII-es_EKKK]: the interaction score with Core_NIII-es_KEEE is 2.17.

DKNAQLKQENAELEQEIAELEWEIAQLEQ [O1-bA]: the interaction score with O1-bA was -0.889; with O10-bA it was 1.21; with O11-bA, -1.05; with O12-bA it was -0.825; in the test with O13-bA, 0.415; in the test with O14-bA, -1.02. For the same molecule, the interaction score with O15-bA was -1.03; in the test with O16-bA it was -0.581; with O2-bA, 2.31; with O3-bA it was -1.08; in the test with O4-bA, -1.53; in the test with O5-bA, -1.23. In addition, the interaction score with O6-bA is -0.599; with O7-bA, -0.0848; with O8-bA, -1.59; with O9-bA, -0.823.

As for DENAALEAEIAALEAKNAALKAENAALEG [Core_NINN-es_EEKE], the interaction score in the test with Core_NINN-es_KKEK stood at 1.78.

In the case of DENAALEEKIAQLKQKNAALKEEIQALEY [P5p], in the test with P6p, the interaction score is 1.9.

For the molecule DENQQLEQEIQELEQENQELEWKIQELKQ [4H1046-bN], the interaction score with 4H1046-bN was -0.38; with 4H1072-bN, -0.367; in the test with 4H2568-bN it was 0.836; with 4H2619-bN, -1.35; with 4H2745-bN, -0.112; with 4H344-bN it was 0.965. In addition, the interaction score is -0.252 with 4H363-bN, -0.5 with 4H3907-bN, 1.37 with 4H3961-bN and 0.0233 in the test with 4H470-bN.
